B1: Tyrosine-protein kinase BTK (Homo sapiens), Q06187 (parent)
chain: MAAVILESIFLKRSQQKKKTSPLNFKKRLFLLTVHKLSYYEYDFERGRRGSKKGSIDVEKITCVETVVPEKNPPPERQIPRRGEESSEMEQISIIERFPYPFQVVYDEGPLYVFSPTEELRKRWIHQLKNVIRYNSDLVQKYHPCFWIDGQYLCCSQTAKNAMGCQILENRNGSLKPGSSHRKTKKPLPPTPEEDQILKKPLPPEPAAAPVSTSELKKVVALYDYMPMNANDLQLRKGDEYFILEESNLPWWRARDKNGQEGYIPSNYVTEAEDSIEMYEWYSKHMTRSQAEQLLKQEGKEGGFIVRDSSKAGKYTVSVFAKSTGDPQGVIRHYVVCSTPQSQYYLAEKHLFSTIPELINYHQHNSAGLISRLKYPVSQQNKNAPSTAGLGYGSWEIDPKDLTFLKELGTGQFGVVKYGKWRGQYDVAIKMIKEGSMSEDEFIEEAKVMMNLSHEKLVQLYGVCTKQRPIFIITEYMANGCLLNYLREMRHRFQTQQLLEMCKDVCEAMEYLESKQFLHRDLAARNCLVNDQGVVKVSDFGLSRYVLDDEYTSSVGSKFPVRWSPPEVLMYSKFSSKSDIWAFGVLMWEIYSLGKMPYERFTNSETAEHIAQGLRLYRPHLASEKVYTIMYSCWHEKADERPTFKILLSNILDVMDEES
partner: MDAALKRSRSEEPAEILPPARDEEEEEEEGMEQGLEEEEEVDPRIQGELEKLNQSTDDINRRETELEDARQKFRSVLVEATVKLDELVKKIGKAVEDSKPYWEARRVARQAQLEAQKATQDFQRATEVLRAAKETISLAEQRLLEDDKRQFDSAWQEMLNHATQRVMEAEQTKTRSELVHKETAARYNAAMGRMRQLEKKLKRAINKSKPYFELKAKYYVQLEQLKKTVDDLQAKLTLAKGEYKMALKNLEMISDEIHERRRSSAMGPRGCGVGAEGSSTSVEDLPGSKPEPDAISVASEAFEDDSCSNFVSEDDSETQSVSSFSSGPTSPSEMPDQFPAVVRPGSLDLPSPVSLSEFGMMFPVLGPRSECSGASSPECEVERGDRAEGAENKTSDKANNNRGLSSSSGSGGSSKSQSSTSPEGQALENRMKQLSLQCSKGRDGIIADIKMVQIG

Variants of B1 are the subject of the experiment. To be noted: with 3bp5_human SH3BP5, O60239.
For W251L;W252L, the “effect of a mutation on the interaction” value was “decreasing interaction”.

Values taken from IntAct's records for PubMed 9571151.
